Consider four molecules from PMC5065529, “Wnt Signalosome Assembly by DEP Domain Swapping of Dishevelled” (Molecular Cell, 2016).

The target of series [1] is DEP_(414–507)-GFP, minimal DEP domain of DVL2 (UniProt O14641). Briefly: FZD5-dependent PM recruitment of DEP-GFP (cell scoring). The note with it: 100 cells scored in each case, label printed as 'T526A:S529', new residue at 529 not given, read off a plot.
Series [2] deals with the molecule itself. Briefly: SEC-MALS; purified Lip-DEP_(416–511), WT or mutant, unfractionated or purified fractions; PBS, GE Superdex S-200 10/300 analytical column. For orientation: SEC sorts molecules by how far they enter the pores of the column.

Numbering of substitutions follows the chain as printed. Where “and” joins values, the source holds several entries; their conditions need not be identical. Identical values can stand only once.

As to “SNAP-FZD5 (Frizzled 5), wild type (from UniProt Q13467) T526A:S529”, the other: % of cells with strong PM recruitment in series [1] (parent: est. 52) was 3 % of cells. Also, the other: % of cells with strong or weak PM recruitment (top of weak segment) in series [1] (parent: est. 88) is 24 % of cells.

B1: Lip-DEP_(416–511) L445E (domain or fragment, human, UniProt O14641 416-511, looked up)
chain: GLSVHTDMASVTKAMAAPESGLEVRDRMWEKITIPNAFLGSDVVDWLYHHVEGFPERREARKYASGLLKAGLIRHTVNKITFSEQCYYVFGDLSGG
notes: Dishevelled 2 (DVL2), human, DEP domain, residues 416-511; source: E. coli BL21-CodonPlus(DE3)-RIL, purified
Turning to B1, the binding result in series [2] is “binds”.

B2: Lip-DEP_(416–511), lipoyl-tagged DEP domain of DVL2 (domain or fragment, human, UniProt O14641 416-511, looked up)
chain: B1 chain with E30L
notes: Dishevelled 2 (DVL2), human, DEP domain, residues 416-511; Purified essentially as in Fiedler et al., 2011; details in the Supplemental Information; also called purified DEP; wt; source: E. coli BL21-CodonPlus(DE3)-RIL, purified (SEC)
Turning to B2, the “stoichiometry N” value in series [2] was 2 and 4.

B3: Lip-DEP_(416–511) MLI > AAA (domain or fragment, human, UniProt O14641 416-511, looked up)
chain: B1 chain with M28A, E30A, I32A
notes: Dishevelled 2 (DVL2), human, DEP domain, residues 416-511; the hydrophobic triad M443, L445, I447 changed to alanines; also called triple-alanine mutation of the hydrophobic triad; source: E. coli BL21-CodonPlus(DE3)-RIL, purified
Turning to B3, the binding result in series [2] is recorded as “binds”.

For orientation: stoichiometry N means the number of molecules, sites or subunits per partner or assembly.
